Reference: patent US8962697B2, “Bioreponsive polymers” (Interface Biologics Inc., priority 2006, dated 2015)

What was measured:
V8 proteinase = V8 proteinase (Staphylococcus aureus, UniProt P0C1U8); conditions: 100 nM V8 proteinase, 1 mM substrate, 37° C., 3 hr
Protocol: The hydrolysis of the substrate was performed in V8 proteinase activation buffer. The buffer contains 100 mM Tris-HCL, 1 mM CaCl2, pH 7.8, and 10 mM o-phenanthroline. 100 nM V8 proteinase and 1 mM substrate were added in the buffer, and then incubated at 37° C. for 3 hr.
(§1) All control degradation profiles was conducted as outlined in EXAMPLE 22 through EXAMPLE 26 utilizing the control peptides […] and PRRICV, identified as LAR-7047 and LAR-7048 respectively, as substrates.

MMP-9 = target: T1, MMP-9 (Homo sapiens, UniProt P14780); experiment: MMP-9 bioresponsive degradation assay; type: biochemical; conditions: 100 nM MMP-9, 1 mM substrate, room temperature, 3 hr
T1 construct: purchased Chemicon, Temecula, Calif
T1 sequence (P14780 107-707 limits assumed): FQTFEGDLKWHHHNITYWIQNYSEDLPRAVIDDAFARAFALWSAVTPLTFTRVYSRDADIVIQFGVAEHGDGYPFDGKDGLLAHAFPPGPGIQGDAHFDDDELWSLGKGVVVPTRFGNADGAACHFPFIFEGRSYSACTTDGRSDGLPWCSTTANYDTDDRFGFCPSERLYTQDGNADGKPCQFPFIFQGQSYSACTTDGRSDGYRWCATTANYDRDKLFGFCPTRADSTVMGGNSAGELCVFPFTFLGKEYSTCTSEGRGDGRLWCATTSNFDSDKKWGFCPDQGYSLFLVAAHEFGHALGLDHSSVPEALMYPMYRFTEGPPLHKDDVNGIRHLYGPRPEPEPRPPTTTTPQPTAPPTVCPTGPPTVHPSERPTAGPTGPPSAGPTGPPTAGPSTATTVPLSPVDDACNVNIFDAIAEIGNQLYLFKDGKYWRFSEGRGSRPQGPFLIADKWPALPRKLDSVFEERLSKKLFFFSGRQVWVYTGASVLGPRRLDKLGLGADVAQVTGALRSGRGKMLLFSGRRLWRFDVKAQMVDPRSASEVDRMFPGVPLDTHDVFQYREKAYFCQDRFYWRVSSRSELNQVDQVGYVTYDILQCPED
Protocol: The hydrolysis of the substrates were done in MMPs activation buffer. […] 100 nM MPP-9 was added in this activating buffer and incubated at 37° C. for 4 hr. to activate enzyme. After activating, the 1 mM substrates were added to be hydrolysis at room temperature for 3 hr.

aureolysin = aureolysin (Staphylococcus aureus, UniProt P81177); conditions: 100 nM aureolysin, 1 mM substrate, 37° C., 3 hr
Chain of aureolysin (P81177 209-509): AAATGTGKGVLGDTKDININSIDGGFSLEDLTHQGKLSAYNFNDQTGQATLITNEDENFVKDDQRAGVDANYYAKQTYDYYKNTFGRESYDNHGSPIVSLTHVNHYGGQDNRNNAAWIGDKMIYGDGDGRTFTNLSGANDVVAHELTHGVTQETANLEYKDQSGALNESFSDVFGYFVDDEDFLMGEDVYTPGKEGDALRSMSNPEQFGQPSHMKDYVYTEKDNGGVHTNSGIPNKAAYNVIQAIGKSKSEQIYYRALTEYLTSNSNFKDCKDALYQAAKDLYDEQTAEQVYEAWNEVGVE
Protocol: The hydrolysis of the substrate was performed in aureolysin activation buffer. The buffer contains 100 mM Tris-HCL, 1 mM CaCL2, pH 7.8, and 1 mM 3,4-dichloroisoumarine. 100 nM aureolysin and 1 mM substrate were added in the buffer, and then incubated at 37° C. for 3 hr.
as §1

Chain of V8 proteinase (P0C1U8 69-336): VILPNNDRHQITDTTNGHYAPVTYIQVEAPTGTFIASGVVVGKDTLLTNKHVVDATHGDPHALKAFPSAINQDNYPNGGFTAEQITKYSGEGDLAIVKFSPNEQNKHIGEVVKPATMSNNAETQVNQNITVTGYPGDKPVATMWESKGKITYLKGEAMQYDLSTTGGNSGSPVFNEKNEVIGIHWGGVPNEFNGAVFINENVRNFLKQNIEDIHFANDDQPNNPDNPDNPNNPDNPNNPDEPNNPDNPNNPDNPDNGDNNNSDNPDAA

Substance: Pro-arg-arg-ile-sys-val (PRRICV) [LAR-7048]
- Degradation of peptide substrate by V8 proteinase (V8 proteinase): No degradation
- Degradation of peptide substrate by MMP-9 (fragment observed) (MMP-9): No degradation
- Degradation of peptide substrate by aureolysin (aureolysin): No degradation

Substance: Pro-arg-arg-arg-arg-pro-arg-gln-ile-thr-ala (PRRRRPRQITA) [LAR-7009, peptide targeted to MMP-9 (inflammation)]
- Degradation of peptide substrate by MMP-9 (fragment observed) (MMP-9): produced specific fragment pick: 1121.66 corresponding to PRRRRPRQ sequence

Substance: val-phe-phe-arg-arg-gln-thr-ala (VFFRRQTA) [LAR-7047]
- Degradation of peptide substrate by V8 proteinase (V8 proteinase): No degradation
- Degradation of peptide substrate by MMP-9 (fragment observed) (MMP-9): No degradation
- Degradation of peptide substrate by aureolysin (aureolysin): No degradation
